Source: article PMC5779224, “Autoinhibition of ankyrin-B/G membrane target bindings by intrinsically disordered segments from the tail regions” (eLife, 2017)

Columns and labels:
[1] = target: T1, AnkG 38–903 (MBD + AI-c + AI-b) (rat, UniProt O70511-1 38-903); experiment: ITC; VP-ITC MicroCal, 25 °C; proteins in 50 mM Tris-HCl pH 7.8, 1 mM DTT, 1 mM EDTA with 100 mM or 500 mM NaCl as required; who was titrated is not told; conditions: both partners purified
T1 construct: numbers count on: rat AnkG NM_001033984.1 (MBD-UPA); also called extended AnkG MBD; source: E. coli BL21 (DE3), purified (Ni2+-NTA, size exclusion)
T1 sequence (looked up): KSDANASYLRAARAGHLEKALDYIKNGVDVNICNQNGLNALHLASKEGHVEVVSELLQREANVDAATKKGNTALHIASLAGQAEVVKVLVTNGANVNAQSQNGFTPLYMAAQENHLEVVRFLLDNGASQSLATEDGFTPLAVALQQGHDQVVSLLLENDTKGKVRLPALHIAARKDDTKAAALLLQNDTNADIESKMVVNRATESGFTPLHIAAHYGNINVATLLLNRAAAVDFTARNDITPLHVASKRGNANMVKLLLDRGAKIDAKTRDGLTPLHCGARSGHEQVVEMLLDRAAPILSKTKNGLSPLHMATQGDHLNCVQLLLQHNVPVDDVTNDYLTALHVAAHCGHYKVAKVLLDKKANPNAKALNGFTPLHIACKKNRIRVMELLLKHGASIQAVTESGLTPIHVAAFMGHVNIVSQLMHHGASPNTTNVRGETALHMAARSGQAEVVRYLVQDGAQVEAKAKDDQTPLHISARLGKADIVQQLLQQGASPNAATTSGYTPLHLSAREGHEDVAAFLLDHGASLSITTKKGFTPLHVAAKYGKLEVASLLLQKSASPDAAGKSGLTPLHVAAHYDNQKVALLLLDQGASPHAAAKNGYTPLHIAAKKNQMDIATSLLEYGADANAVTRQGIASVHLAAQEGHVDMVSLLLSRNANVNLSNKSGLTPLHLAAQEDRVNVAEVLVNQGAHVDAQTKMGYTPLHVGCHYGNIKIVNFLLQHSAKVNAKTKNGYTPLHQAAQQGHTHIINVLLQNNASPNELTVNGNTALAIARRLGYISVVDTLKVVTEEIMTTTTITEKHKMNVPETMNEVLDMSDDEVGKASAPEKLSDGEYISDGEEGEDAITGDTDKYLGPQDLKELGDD

[2] = target: T2, AnkB 28–847 (MBD + partial AI-c) (human, UniProt Q01484-2 28-847); experiment: as above; conditions: both partners purified
T2 construct: ankyrin-B (AnkB), human 220 kDa isoform, residues 28-847: MBD and a short 20-residue linker; numbers count on: human 220 kDa AnkB NM_020977.3; also called extended MBD with a short 20-residue linker; source: E. coli BL21 (DE3), purified (Ni2+-NTA, size exclusion)
T2 sequence (looked up): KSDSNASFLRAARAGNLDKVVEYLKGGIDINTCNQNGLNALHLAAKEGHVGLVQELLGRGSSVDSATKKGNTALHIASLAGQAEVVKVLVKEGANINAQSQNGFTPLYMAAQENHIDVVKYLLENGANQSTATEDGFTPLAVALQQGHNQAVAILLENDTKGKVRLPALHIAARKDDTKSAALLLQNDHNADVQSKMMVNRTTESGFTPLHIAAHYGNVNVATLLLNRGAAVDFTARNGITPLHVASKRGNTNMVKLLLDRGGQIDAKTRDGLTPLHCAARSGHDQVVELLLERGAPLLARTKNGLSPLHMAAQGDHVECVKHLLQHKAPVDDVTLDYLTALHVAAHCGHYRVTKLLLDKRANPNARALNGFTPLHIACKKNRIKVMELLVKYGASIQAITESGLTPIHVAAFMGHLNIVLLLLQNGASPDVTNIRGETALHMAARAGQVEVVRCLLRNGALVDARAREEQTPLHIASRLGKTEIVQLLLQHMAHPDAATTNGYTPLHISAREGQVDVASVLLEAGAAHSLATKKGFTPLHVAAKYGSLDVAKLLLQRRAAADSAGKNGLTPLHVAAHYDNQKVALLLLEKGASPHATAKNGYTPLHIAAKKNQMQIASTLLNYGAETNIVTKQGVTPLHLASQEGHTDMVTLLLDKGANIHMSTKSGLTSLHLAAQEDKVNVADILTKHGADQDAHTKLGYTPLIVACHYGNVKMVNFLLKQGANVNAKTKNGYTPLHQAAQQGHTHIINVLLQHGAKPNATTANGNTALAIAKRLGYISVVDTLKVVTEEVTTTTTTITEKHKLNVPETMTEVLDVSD

binding result [1]: binds | binding result [2]: binds
B1: Nav1.2 (aa 1035–1129) (domain or fragment, mouse, UniProt B1AWN6 1035-1129, looked up)
chain: KALDEIKPLEDLNNKKDSCISNHTTIEIGKDLNYLKDGNGTTSGIGSSVEKYVVDESDYMSFINNPSLTVTVPIAVGESDFENLNTEEFSSESDM
notes: source: E. coli BL21 (DE3), purified (Ni2+-NTA, size exclusion)
